Literature values, collected in article PMC6678900.
Each block holds one substance with its values, some of them ahead of it.

Assays:
[1] = molecular target: TRAILR1 (Homo sapiens) (UniProt O00220)
[2] = molecular target: TRAILR2 (Homo sapiens) (UniProt O14763)
[3] = molecular target: TRAILR4 (Homo sapiens) (UniProt Q9UBN6)

- Kd [1]: > 1000 nM
Substance: TRAILR1 (from UniProt O00220)

- Kd [2]: > 1000 nM
Substance: TRAILR2 (from UniProt O14763)

- Kd [3]: > 1000 nM
Substance: TRAILR4 (from UniProt Q9UBN6)
